Several values for one entry are separate records, joined by “and”; a condition that tells them apart may be missing. Equal entries are not always repeated.
Columns and labels:
[1] = target: human CD2 on primary human T cells (human) (UniProt P06729); assay: flow cytometry, calculated Kd of competitor antibody; human CD4 naïve T cells
[2] = target: human CD2 on primary human T cells (human) (UniProt P06729); assay: flow cytometry, calculated Kd of competitor antibody; human CD8 naïve T cells
[3] = target: human CD2 on primary human T cells (human) (UniProt P06729); assay: flow cytometry, calculated Kd of competitor antibody; human CD4 memory T cells
[4] = target: human CD2 on primary human T cells (human) (UniProt P06729); assay: flow cytometry, calculated Kd of competitor antibody; human CD8 memory T cells
[5] = target: human CD2 on primary human T cells (human) (UniProt P06729); assay: flow cytometry, calculated Kd of competitor antibody; expanded human CD4 Treg cells
[6] = target: human CD2 on primary human T cells (human) (UniProt P06729); assay: flow cytometry, calculated Kd of competitor antibody; human CD4 central memory T cells
[7] = target: human CD2 on primary human T cells (human) (UniProt P06729); assay: flow cytometry, calculated Kd of competitor antibody; human CD4 effector memory T cells

Chain of human CD2 on primary human T cells (human) (P06729 25-351): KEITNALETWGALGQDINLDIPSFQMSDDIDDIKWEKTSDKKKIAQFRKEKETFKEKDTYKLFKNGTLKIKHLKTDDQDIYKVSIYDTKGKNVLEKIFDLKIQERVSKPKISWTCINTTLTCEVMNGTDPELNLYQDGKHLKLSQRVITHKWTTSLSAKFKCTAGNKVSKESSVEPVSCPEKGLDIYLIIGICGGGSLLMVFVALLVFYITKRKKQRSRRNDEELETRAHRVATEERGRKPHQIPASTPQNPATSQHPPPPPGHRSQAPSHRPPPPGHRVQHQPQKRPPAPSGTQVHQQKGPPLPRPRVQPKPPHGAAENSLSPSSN

Kd [1]: 0.0182 µM and 0.0238 µM
Kd [2]: 0.0148 µM and 0.031 µM
Kd [3]: 0.0237 µM and 0.042 µM
Kd [4]: 0.011 µM
Kd [5]: 0.0679 µM
Kd [6]: 0.0447 µM
Kd [7]: 0.034 µM
Substance: anti-CD2-FITC (clone RPA2.10) (antibody)

From patent US20210032308A1
